In US20250179187A1, “ANTI PD-L2 ANTIBODY” (REJUVERON SENESCENCE THERAPEUTICS AG, priority 2022, published 2025) one finds EC50 (PD-1/PD-L2 blockade reporter assay, luminescence) and EC50 data, which are given here for three substances.

Read-outs that look alike come from different tables or passages of the source.

Assay [1] concerns the target human PD-L2 on CHO-K1 cells of the Promega PD-1/PD-L2 blockade bioassay (human) (UniProt Q9BQ51).
Assay [2] concerns the target human PD-L2 on CHO-K1 cells over-expressing hPDL2-GFP (human) (UniProt Q9BQ51). Briefly: flow cytometry on CHO-K1 cells expressing hPD-L2, median fluorescence.
Assay [3] has the same target. Description: binding to cellular PDL2 (FIG. 1A by the text; flow cytometry on CHO-K1 cells expressing hPD-L2). For orientation: Flow cytometry measures light scatter and fluorescence of single cells or particles in a stream.
Assay [4] shares this target. Briefly: flow cytometry blocking assay: antibody titrated against recombinant hPD-1 (constant 15 micrograms/mL) binding to CHO-K1 cells expressing hPD-L2; signal falls with the antibody; column head on the sheet is EC50.
The target in assay [5] is human PD-L2 on CHO-K1 cells of the Promega PD-1/PD-L2 blockade bioassay (human) (UniProt Q9BQ51). The source holds these as a separate data set.
Sequence of human PD-L2 on CHO-K1 cells of the Promega PD-1/PD-L2 blockade bioassay (human) (Q9BQ51 20-273): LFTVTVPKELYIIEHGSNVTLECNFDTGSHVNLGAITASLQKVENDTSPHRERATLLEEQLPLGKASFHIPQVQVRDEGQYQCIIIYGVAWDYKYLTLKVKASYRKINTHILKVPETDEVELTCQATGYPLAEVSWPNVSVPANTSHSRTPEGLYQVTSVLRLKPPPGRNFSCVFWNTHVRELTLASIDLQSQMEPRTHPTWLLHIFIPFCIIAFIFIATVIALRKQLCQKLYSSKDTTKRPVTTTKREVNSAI
Assay [6] addresses mouse PD-L2 on CHO-K1 cells over-expressing mPD-L2 GFP (mouse) (UniProt Q9WUL5). Description: flow cytometry on CHO-K1 cells overexpressing mPD-L2, mean fluorescence.

Sequence of human PD-L2 on CHO-K1 cells over-expressing hPDL2-GFP (human) (Q9BQ51 20-273): as above
Sequence of mouse PD-L2 on CHO-K1 cells over-expressing mPD-L2 GFP (mouse) (Q9WUL5 20-247): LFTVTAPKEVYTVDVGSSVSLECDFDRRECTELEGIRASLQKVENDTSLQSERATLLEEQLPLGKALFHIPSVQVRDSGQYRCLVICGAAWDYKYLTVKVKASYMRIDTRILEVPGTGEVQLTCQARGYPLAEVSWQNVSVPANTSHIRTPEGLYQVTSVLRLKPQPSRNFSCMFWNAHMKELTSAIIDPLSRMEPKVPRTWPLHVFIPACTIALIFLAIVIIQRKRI

Regarding “24F.10C12 (commercially available anti-PD-L2 monoclonal antibody)”, the EC50 (PD-1/PD-L2 blockade reporter assay, luminescence) in assay [1] was 1.78 nM. Also, the EC50 (commonly the concentration needed to bring the measured effect to its halfway point) in assay [2] turned out to be 1.18 nM; in assay [3], 0.7 nM; in assay [4], 1.14 nM.

“MIH-18 (commercially available anti-PD-L2 monoclonal antibody)”: the EC50 (PD-1/PD-L2 blockade reporter assay, luminescence) in assay [5] stood at 1.32 nM; in assay [1], 1.71 nM. The figures for the EC50 in assay [2], in assay [3] and in assay [4] were 1.65 nM, 0.618 nM and 2.99 nM, respectively.

With TY25 (antibody), the EC50 in assay [6] was found to be 0.64 nM.
